Test results as given in patent publication US20240368675.

System: T1, Gs12-10 (uncultured bacterium (metagenome)?)
T1 sequence: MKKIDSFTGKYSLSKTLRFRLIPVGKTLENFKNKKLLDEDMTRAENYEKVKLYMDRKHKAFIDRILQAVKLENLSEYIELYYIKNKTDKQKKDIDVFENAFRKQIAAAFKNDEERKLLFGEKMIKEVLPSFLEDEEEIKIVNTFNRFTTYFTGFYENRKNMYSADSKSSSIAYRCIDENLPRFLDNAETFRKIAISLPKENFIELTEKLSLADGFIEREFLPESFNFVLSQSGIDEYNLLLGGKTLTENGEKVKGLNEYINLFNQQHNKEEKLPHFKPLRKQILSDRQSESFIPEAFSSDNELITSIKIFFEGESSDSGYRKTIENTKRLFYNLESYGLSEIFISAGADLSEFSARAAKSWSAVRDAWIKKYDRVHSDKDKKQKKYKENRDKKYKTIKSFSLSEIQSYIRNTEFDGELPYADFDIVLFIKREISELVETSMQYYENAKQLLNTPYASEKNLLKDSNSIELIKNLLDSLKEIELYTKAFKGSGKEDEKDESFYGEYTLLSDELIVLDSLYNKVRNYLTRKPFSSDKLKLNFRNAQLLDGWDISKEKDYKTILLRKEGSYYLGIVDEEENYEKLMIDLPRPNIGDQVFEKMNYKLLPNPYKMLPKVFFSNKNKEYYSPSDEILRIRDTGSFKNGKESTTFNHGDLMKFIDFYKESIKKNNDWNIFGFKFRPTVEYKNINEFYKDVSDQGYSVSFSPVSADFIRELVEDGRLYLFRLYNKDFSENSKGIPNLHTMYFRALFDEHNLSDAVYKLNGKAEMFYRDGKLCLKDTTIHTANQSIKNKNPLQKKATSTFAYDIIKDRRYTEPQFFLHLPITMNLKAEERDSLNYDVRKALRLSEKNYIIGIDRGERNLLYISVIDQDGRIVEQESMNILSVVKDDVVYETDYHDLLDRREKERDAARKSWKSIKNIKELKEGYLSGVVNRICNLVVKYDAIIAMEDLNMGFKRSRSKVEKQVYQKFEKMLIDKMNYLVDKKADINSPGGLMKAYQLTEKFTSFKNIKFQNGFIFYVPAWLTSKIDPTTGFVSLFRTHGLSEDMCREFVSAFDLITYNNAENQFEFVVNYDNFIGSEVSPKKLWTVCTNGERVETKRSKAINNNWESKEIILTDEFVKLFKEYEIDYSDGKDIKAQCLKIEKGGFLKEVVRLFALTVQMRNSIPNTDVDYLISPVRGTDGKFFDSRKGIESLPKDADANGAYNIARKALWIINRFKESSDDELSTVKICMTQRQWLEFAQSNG
Test: cleavage_in_vitro
Details: PAM ATTT; CutSmart buffer, 37 C, 2 h

In the case of “crRNA-ATTT pUC19 ; pUC19 circular plasmid”, the activity is reported as 100 % linearised.
